In publication PMC3518024:

Molecular target: T1, AaNusB (Aquifex aeolicus, UniProt O66530 1-148)
T1 sequence: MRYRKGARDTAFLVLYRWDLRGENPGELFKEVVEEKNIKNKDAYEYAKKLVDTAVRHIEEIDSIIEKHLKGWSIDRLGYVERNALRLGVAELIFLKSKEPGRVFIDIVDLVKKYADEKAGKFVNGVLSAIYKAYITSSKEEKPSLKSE
Experiment: X-ray crystallography

B1: AaBoxA 12-mer RNA self-duplex (supercoil-forming) (dsRNA)
RNA 1: GGCUCCUUGGCA
RNA 2: GGCUCCUUGGCA
B1: binds.
